This passage reports abundance fitness results from the Human Domainome abundance scans (Beltran et al. 2025).

To fix the notation:
B1: Zinc finger homeobox protein 3, residues 2147 to 2202; numbered along this chain, Q15911 (parent)
chain: RPRTRITDDQLRVLRQYFDINNSPSEEQIKEMADKSGLPQKVIKHWFRNTLFKERQ

± gives the uncertainty stated by the source.

In this data set the parent is B1. The experiment in a line: abundance fitness (aPCA) (normalised: wild type 0, dead -1); higher = more abundant; growth selection in yeast, the domain comes from the species named. The following applies: Homo sapiens.
With RPRTRITDDHLRVLRQYFDINNSPSEEQIKEMADKSGLPQKVIKHWFRNTLFKERQ [Q10H], the abundance fitness worked out at 0.025 ± 0.13.
Next, RPRTRITDDGLRVLRQYFDINNSPSEEQIKEMADKSGLPQKVIKHWFRNTLFKERQ [Q10G]: -0.602 ± 0.065; RPRTRITDDNLRVLRQYFDINNSPSEEQIKEMADKSGLPQKVIKHWFRNTLFKERQ [Q10N]: -0.477 ± 0.13; RPRTRITDDMLRVLRQYFDINNSPSEEQIKEMADKSGLPQKVIKHWFRNTLFKERQ [Q10M]: -0.27 ± 0.1.
The figure for RPRTRITDDELRVLRQYFDINNSPSEEQIKEMADKSGLPQKVIKHWFRNTLFKERQ [Q10E] is -0.394 ± 0.08; for RPRTRITDDWLRVLRQYFDINNSPSEEQIKEMADKSGLPQKVIKHWFRNTLFKERQ [Q10W] it is -0.718 ± 0.088; for RPRTRITDDCLRVLRQYFDINNSPSEEQIKEMADKSGLPQKVIKHWFRNTLFKERQ [Q10C] it is -0.381 ± 0.098.
Regarding RPRTRITDDPLRVLRQYFDINNSPSEEQIKEMADKSGLPQKVIKHWFRNTLFKERQ [Q10P], the abundance fitness is -0.741 ± 0.094.
Next, RPRTRITDDILRVLRQYFDINNSPSEEQIKEMADKSGLPQKVIKHWFRNTLFKERQ [Q10I]: -0.464 ± 0.14; RPRTRITDDTLRVLRQYFDINNSPSEEQIKEMADKSGLPQKVIKHWFRNTLFKERQ [Q10T]: -0.357 ± 0.1.
The figure for RPRTRITDDLLRVLRQYFDINNSPSEEQIKEMADKSGLPQKVIKHWFRNTLFKERQ [Q10L] is -0.453 ± 0.072.
The figure for RPRTRITDDFLRVLRQYFDINNSPSEEQIKEMADKSGLPQKVIKHWFRNTLFKERQ [Q10F] is -0.626 ± 0.14; for RPRTRITDDYLRVLRQYFDINNSPSEEQIKEMADKSGLPQKVIKHWFRNTLFKERQ [Q10Y] it is -0.626 ± 0.11; for RPRTRITDDRLRVLRQYFDINNSPSEEQIKEMADKSGLPQKVIKHWFRNTLFKERQ [Q10R] it is -0.605 ± 0.066.
RPRTRITDDDLRVLRQYFDINNSPSEEQIKEMADKSGLPQKVIKHWFRNTLFKERQ [Q10D]: the abundance fitness is -0.308 ± 0.1.
The figure for RPRTRITDDKLRVLRQYFDINNSPSEEQIKEMADKSGLPQKVIKHWFRNTLFKERQ [Q10K] is -0.359 ± 0.093; for RPRTRITDDALRVLRQYFDINNSPSEEQIKEMADKSGLPQKVIKHWFRNTLFKERQ [Q10A] it is -0.263 ± 0.07; for RPRTRITDMQLRVLRQYFDINNSPSEEQIKEMADKSGLPQKVIKHWFRNTLFKERQ [D9M] it is -0.082 ± 0.089.
The figure for RPRTRITDSQLRVLRQYFDINNSPSEEQIKEMADKSGLPQKVIKHWFRNTLFKERQ [D9S] is 0.098 ± 0.07; for RPRTRITDLQLRVLRQYFDINNSPSEEQIKEMADKSGLPQKVIKHWFRNTLFKERQ [D9L] it is -0.106 ± 0.072.
The figure for RPRTRITDWQLRVLRQYFDINNSPSEEQIKEMADKSGLPQKVIKHWFRNTLFKERQ [D9W] is -0.171 ± 0.078.
For the variant RPRTRITDRQLRVLRQYFDINNSPSEEQIKEMADKSGLPQKVIKHWFRNTLFKERQ [D9R], the abundance fitness is -0.143 ± 0.063.
Next, RPRTRITDYQLRVLRQYFDINNSPSEEQIKEMADKSGLPQKVIKHWFRNTLFKERQ [D9Y]: -0.148 ± 0.11.
The figure for RPRTRITDFQLRVLRQYFDINNSPSEEQIKEMADKSGLPQKVIKHWFRNTLFKERQ [D9F] is -0.013 ± 0.13.
The figure for RPRTRITDQQLRVLRQYFDINNSPSEEQIKEMADKSGLPQKVIKHWFRNTLFKERQ [D9Q] is 0.018 ± 0.11; for RPRTRITDPQLRVLRQYFDINNSPSEEQIKEMADKSGLPQKVIKHWFRNTLFKERQ [D9P] it is -0.074 ± 0.085; for RPRTRITDIQLRVLRQYFDINNSPSEEQIKEMADKSGLPQKVIKHWFRNTLFKERQ [D9I] it is -0.176 ± 0.11.
With RPRTRITDCQLRVLRQYFDINNSPSEEQIKEMADKSGLPQKVIKHWFRNTLFKERQ [D9C], the abundance fitness is 0.158 ± 0.1.
Next, RPRTRITDTQLRVLRQYFDINNSPSEEQIKEMADKSGLPQKVIKHWFRNTLFKERQ [D9T]: 0.038 ± 0.081.
As for RPRTRITDKQLRVLRQYFDINNSPSEEQIKEMADKSGLPQKVIKHWFRNTLFKERQ [D9K], the abundance fitness amounted to 0.046 ± 0.098.
Next, RPRTRITDGQLRVLRQYFDINNSPSEEQIKEMADKSGLPQKVIKHWFRNTLFKERQ [D9G]: -0.068 ± 0.062; RPRTRITDVQLRVLRQYFDINNSPSEEQIKEMADKSGLPQKVIKHWFRNTLFKERQ [D9V]: -0.172 ± 0.073; RPRTRITDAQLRVLRQYFDINNSPSEEQIKEMADKSGLPQKVIKHWFRNTLFKERQ [D9A]: 0.088 ± 0.078.
Next, RPRTRRTDDQLRVLRQYFDINNSPSEEQIKEMADKSGLPQKVIKHWFRNTLFKERQ [I6R]: -0.727 ± 0.086; RPRTRTTDDQLRVLRQYFDINNSPSEEQIKEMADKSGLPQKVIKHWFRNTLFKERQ [I6T]: -0.448 ± 0.11; RPRTRHTDDQLRVLRQYFDINNSPSEEQIKEMADKSGLPQKVIKHWFRNTLFKERQ [I6H]: -0.241 ± 0.14.
Next, RPRTRVTDDQLRVLRQYFDINNSPSEEQIKEMADKSGLPQKVIKHWFRNTLFKERQ [I6V]: -0.084 ± 0.072; RPRTRLTDDQLRVLRQYFDINNSPSEEQIKEMADKSGLPQKVIKHWFRNTLFKERQ [I6L]: 0.179 ± 0.076.
As to RPRTRSTDDQLRVLRQYFDINNSPSEEQIKEMADKSGLPQKVIKHWFRNTLFKERQ [I6S], the abundance fitness was -0.46 ± 0.098.
The figure for RPRTRNTDDQLRVLRQYFDINNSPSEEQIKEMADKSGLPQKVIKHWFRNTLFKERQ [I6N] is -0.401 ± 0.14.
As for RPRTRKTDDQLRVLRQYFDINNSPSEEQIKEMADKSGLPQKVIKHWFRNTLFKERQ [I6K], the abundance fitness was -0.332 ± 0.11.
As to RPRTRWTDDQLRVLRQYFDINNSPSEEQIKEMADKSGLPQKVIKHWFRNTLFKERQ [I6W], the abundance fitness is -0.477 ± 0.1.
Next, RPRTRPTDDQLRVLRQYFDINNSPSEEQIKEMADKSGLPQKVIKHWFRNTLFKERQ [I6P]: -0.108 ± 0.12; RPRTRQTDDQLRVLRQYFDINNSPSEEQIKEMADKSGLPQKVIKHWFRNTLFKERQ [I6Q]: -0.529 ± 0.11.
The figure for RPRTRYTDDQLRVLRQYFDINNSPSEEQIKEMADKSGLPQKVIKHWFRNTLFKERQ [I6Y] is -0.123 ± 0.11.
The figure for RPRTRITIDQLRVLRQYFDINNSPSEEQIKEMADKSGLPQKVIKHWFRNTLFKERQ [D8I] is -0.122 ± 0.12; for RPRTRITFDQLRVLRQYFDINNSPSEEQIKEMADKSGLPQKVIKHWFRNTLFKERQ [D8F] it is -0.204 ± 0.1.
